Measured values reported in article PMC6735628.

Assays:
[1] = molecular target: native LIC11711 (L. interrogans serovar Copenhageni (endogenous in strain M20)); assay: western blot of cell extracts; L. interrogans M20 cells treated with proteinase K for 0, 1 and 3 h, extracts blotted and probed with antiserum against rLIC11711
E-cadherin = E-cadherin (UniProt P12830); assay: ELISA; dose-response: 1 ug host component or BSA coated, increasing recombinant protein (0-20 uM); HRP anti-His MAb; KD by non-linear regression in GraphPad Prism 6
[2] = molecular target: recombinant protein LIC11711 (L. interrogans serovar Copenhageni (strain M20 genomic DNA)); assay: non-reducing SDS-PAGE with western blot; purified recombinant proteins, non-reducing against reducing treatment (beta-mercaptoethanol and heating at 96 C); probed with anti-His MAbs or polyclonal antisera
plasminogen (human) = assay: ELISA; time course: 1 ug PLG coated, 1 ug recombinant protein for 5, 15, 30, 60 and 120 min; anti-His MAbs; percent of the 120 min value
vitronectin (human) = assay: ELISA; vitronectin (250 ng/well) coated, 5 uM recombinant protein plus increasing heparin, 2 h at 37 C; HRP anti-His MAbs
[3] = molecular target: complement component C8 (human) (UniProt P07357); assay: ELISA; dose-response: 1 ug host component or BSA coated, increasing recombinant protein (0-20 uM); HRP anti-His MAb; KD by non-linear regression in GraphPad Prism 6
UniProt P07357, sequence (P07357 31-584, chain 1 of 3): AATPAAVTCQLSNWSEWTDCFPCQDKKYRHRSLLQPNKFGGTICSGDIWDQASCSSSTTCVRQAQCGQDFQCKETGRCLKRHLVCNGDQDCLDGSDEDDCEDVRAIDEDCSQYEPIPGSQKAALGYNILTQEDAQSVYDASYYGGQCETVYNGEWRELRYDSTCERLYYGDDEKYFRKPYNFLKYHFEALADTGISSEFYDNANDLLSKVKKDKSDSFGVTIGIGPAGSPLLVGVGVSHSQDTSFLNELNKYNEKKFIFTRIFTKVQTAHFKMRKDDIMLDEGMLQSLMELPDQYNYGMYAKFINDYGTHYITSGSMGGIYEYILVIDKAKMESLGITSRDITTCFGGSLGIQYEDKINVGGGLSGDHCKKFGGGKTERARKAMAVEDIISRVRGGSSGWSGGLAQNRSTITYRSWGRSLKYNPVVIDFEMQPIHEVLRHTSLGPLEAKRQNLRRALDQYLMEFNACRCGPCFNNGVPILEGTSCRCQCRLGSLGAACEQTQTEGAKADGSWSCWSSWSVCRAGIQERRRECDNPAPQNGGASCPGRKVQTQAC
UniProt P07357, sequence (P07358 55-591, chain 2 of 3, further chain): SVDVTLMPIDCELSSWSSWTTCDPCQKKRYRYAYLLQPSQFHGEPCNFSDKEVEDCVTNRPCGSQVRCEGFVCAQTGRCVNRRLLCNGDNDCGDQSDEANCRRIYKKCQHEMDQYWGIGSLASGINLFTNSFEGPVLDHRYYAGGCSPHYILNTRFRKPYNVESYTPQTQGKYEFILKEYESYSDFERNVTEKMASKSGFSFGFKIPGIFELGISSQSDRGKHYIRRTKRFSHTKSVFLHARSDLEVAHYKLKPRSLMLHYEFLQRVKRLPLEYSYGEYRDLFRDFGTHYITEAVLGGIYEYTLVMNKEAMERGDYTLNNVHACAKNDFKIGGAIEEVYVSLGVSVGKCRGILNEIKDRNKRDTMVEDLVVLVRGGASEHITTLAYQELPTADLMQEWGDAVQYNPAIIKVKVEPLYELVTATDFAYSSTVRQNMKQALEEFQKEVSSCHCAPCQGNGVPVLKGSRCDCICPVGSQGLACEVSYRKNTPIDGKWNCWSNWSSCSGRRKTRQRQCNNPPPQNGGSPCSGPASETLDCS
UniProt P07357, sequence (P07360 21-202, chain 3 of 3, further chain): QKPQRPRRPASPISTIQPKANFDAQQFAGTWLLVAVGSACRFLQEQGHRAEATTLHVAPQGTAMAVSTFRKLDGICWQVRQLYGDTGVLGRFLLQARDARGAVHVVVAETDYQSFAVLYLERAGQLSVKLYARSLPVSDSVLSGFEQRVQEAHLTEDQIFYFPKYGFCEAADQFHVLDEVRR

[4] = molecular target: complement component C9 (human) (UniProt P02748); assay: as above
UniProt P02748, sequence (P02748 22-559): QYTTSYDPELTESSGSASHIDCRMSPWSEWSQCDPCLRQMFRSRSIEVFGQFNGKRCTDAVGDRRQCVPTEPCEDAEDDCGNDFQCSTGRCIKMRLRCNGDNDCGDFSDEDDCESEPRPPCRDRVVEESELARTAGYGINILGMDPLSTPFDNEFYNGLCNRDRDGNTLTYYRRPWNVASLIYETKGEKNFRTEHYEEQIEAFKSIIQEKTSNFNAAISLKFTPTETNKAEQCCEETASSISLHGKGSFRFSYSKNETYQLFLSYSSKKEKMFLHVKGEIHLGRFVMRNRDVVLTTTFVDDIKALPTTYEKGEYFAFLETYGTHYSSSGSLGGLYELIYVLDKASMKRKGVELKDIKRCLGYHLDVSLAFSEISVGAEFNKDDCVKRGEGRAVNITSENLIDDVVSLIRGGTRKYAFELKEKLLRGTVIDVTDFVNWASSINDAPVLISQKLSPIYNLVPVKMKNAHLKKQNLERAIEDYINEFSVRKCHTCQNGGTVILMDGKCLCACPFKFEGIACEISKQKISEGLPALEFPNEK

[5] = molecular target: complement component C7 (human) (UniProt P10643); assay: as above
UniProt P10643, sequence (P10643 23-843): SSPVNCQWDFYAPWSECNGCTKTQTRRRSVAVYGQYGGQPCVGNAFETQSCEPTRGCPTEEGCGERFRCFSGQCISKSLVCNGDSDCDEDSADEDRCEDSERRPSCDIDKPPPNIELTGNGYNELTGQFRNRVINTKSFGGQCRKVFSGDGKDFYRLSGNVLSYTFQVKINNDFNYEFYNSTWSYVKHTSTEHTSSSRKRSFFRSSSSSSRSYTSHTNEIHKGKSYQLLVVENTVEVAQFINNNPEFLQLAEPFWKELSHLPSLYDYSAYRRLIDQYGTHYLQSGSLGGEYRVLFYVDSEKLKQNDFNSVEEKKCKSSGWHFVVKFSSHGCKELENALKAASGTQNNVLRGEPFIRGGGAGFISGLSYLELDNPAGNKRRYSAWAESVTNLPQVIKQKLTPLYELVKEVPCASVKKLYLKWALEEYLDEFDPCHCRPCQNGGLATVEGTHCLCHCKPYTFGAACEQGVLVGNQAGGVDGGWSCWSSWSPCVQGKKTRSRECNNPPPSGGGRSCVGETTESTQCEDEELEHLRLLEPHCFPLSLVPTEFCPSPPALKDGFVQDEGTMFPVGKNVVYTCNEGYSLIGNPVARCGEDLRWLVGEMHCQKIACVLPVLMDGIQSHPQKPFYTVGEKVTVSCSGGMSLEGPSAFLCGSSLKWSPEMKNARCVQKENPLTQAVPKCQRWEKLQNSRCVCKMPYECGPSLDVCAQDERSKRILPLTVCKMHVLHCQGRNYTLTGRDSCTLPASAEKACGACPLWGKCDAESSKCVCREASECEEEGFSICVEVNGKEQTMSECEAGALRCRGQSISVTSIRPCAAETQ

Row | Substance | stoichiometry N [1] | Kd (E-cadherin) [nM] | stoichiometry N [2] | percent of the maximal binding (2 h) reached at 5 min (plasminogen (human)) [%] | percent reduction of binding with 10 ug/well heparin (vitronectin (human)) [%] | percent reduction of binding with 100 ug/well heparin (vitronectin (human)) [%] | Kd [3] [nM] | Kd [4] [nM] | Kd [5] [nM]
1 | native LIC11711 (natural protein) | 2 | – | – | – | – | – | – | – | –
2 | recombinant protein LIC11711 (natural protein) | – | 3820 | 2 | 40 | 40 | 54 | – | – | –
3 | recombinant protein LIC12587 (natural protein) | – | – | – | – | 10 | 51 | 470 | 630 | 1950
